Results published in patent US6569430.

Key:
[1] = target: Campath-1 antigen (partially purified, obtained from a glycolipid extract from human spleen) (human) (UniProt P31358); assay: cell-based or functional assay
[2] = target: Campath-1 antigen (partially purified, obtained from a glycolipid extract from human spleen) (human) (UniProt P31358); assay: direct binding ELISA, partially purified Campath-1 antigen coated on wells, detected with biotin anti-rat IgG2b; antibody concentration at 50% maximal binding

Row | Concentration of antibody in ug/ml at 50% lysis (complement lysis of human lymphocytes with human serum) [1] | EC50 [2] | Substance
1 | 16.3 µg/mL | 1.8 µg/mL | HuVHCAMP(Ser27 to Phe)-RaIgG2B with rat kappa light chain of YTH 34.5HL (antibody)
2 | 17.6 µg/mL | 2 µg/mL | HuVHCAMP(Ser27 to Phe, Ser30 to Thr)-RaIgG2B with rat kappa light chain of YTH 34.5HL (antibody)
3 |  | 27.3 µg/mL | HuVHCAMP-RaIgG2B with rat kappa light chain of YTH 34.5HL (antibody)
